Tested on: engineered chimeric receptor SEQ ID NO: 33 and its mutants (human α7-nAChR ligand binding domain / human GlyRα1 ion pore domain) in Lenti-X 293T cells
Assay: YFP fluorescence quenching anion reporter plate reader assay (percent quench, EC50)
Format: cell-based
Settings: for YFP fluorescence quenching using CNL001 (percent quench): receptor named in row; for YFP fluorescence quenching using Varenicline, 3 nM var: ligand Varenicline 3 nM; for YFP fluorescence quenching using Varenicline, 30 nM var: ligand Varenicline 30 nM; for YFP fluorescence quenching using Varenicline, 300 nM var: ligand Varenicline 300 nM; for YFP fluorescence quenching using Varenicline, 500 nM var: ligand Varenicline 500 nM; for YFP fluorescence quenching using Varenicline, 1 uM var: ligand Varenicline 1 uM
Method in brief: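 Lenti-X 293T cells co-expressing an anion-quenchable YFP were transiently transfected with receptor DNA, then ligand was added in NaI-substituted buffer (pH 7.2) after 30 min at 37 °C. Fluorescence was read about 2 min; percent quench = mean of last 10 s over 15 s pre-ligand baseline.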

B1: CODA339: engineered receptor: L131D in SEQ ID NO: 33 (protein)
chain: MRCSPGGVWLALAASLLHVSLQGEFQRKLYKELVKNYNPLERPVANDSQPLTVYFSLSLLQIMDVDEKNQVLTTNIWLQMSWTDHYLQWNVSEYPGVKTVRFPDGQIWKPDILLYNSADERFDATFHTNVDVNSSGHCQYLPPGIFKSSCPMDLKNFPMDVQTCKLKFGSWSYGGWSLDLQMQEADISGYIPNGEWDLVGIPGKRSERFYECCKEPYPDVTFTVTMRRRMGYYLIQMYIPSLLIVILSWISFWINMDAAPARVGLGITTVLTMTTQSSGSRASLPKVSYVKAIDIWMAVCLLFVFSALLEYAAVNFVSRQHKELLRFRRKRRHHKSPMLNLFQEDEAGEGRFNFSAYGMGPACLQAKDGISVKGANNSNTTNPPPAPSKSPEEMRKLFIQRAKKIDKISRIGFPMAFLIFNMFYWIIYKIVRREDVHNQ
modifications: synthetic sequence of chimeric LGIC
YFP fluorescence quenching using CNL001 (percent quench) (1 nM CNL001, first column so headed): 73.711%
YFP fluorescence quenching using CNL001 (percent quench) (1 nM CNL001, second column so headed): 76.44%
YFP fluorescence quenching using TC-5619/Bradanicline (percent quench) (1 nM brd (TC-5619/Bradanicline)): 4.12%
YFP fluorescence quenching using TC-5619/Bradanicline (percent quench) (3 nM brd (TC-5619/Bradanicline)): 19.15%
YFP fluorescence quenching using CNL001 (percent quench) (10 nM CNL001, first column so headed): 77.049%
YFP fluorescence quenching using CNL001 (percent quench) (10 nM CNL001, second column so headed): 77.76%
YFP fluorescence quenching using TC-5619/Bradanicline (percent quench) (10 nM brd (TC-5619/Bradanicline)): 68.98%
YFP fluorescence quenching using TC-6683 (percent quench) (30 nM TC-6683): −18.32%
YFP fluorescence quenching using TC-5619/Bradanicline (percent quench) (30 nM brd (TC-5619/Bradanicline)): 77.29%
YFP fluorescence quenching using CNL001 (percent quench) (50 nM CNL001, first column so headed): 77.882%
YFP fluorescence quenching using CNL001 (percent quench) (50 nM CNL001, second column so headed): 78.708%
YFP fluorescence quenching using ABT-126 (percent quench) (50 nM abt (ABT-126)): −16.65%
YFP fluorescence quenching using CNL001 (percent quench) (100 nM CNL001, first column so headed): 79.567%
YFP fluorescence quenching using CNL001 (percent quench) (100 nM CNL001, second column so headed): 79.273%
YFP fluorescence quenching (percent quench) (100 nM CNL002): 12.83%
YFP fluorescence quenching using ABT-126 (percent quench) (100 nM abt (ABT-126)): −12.3%
YFP fluorescence quenching using AZD-0328 (percent quench) (100 nM azd0328): 62.87%
YFP fluorescence quenching using TC-5619/Bradanicline (percent quench) (100 nM brd (TC-5619/Bradanicline)): 81.41%
YFP fluorescence quenching using TC-6683 (percent quench) (300 nM TC-6683): −17.25%
YFP fluorescence quenching using ABT-126 (percent quench) (300 nM abt (ABT-126)): 18.5%
YFP fluorescence quenching using AZD-0328 (percent quench) (300 nM azd0328): 77.03%
YFP fluorescence quenching using TC-5619/Bradanicline (percent quench) (300 nM brd (TC-5619/Bradanicline)): 75.79%
YFP fluorescence quenching using CNL001 (percent quench) (1 uM CNL001, first column so headed): 79.992%
YFP fluorescence quenching using CNL001 (percent quench) (1 uM CNL001, second column so headed): 79.927%
YFP fluorescence quenching (percent quench) (1 uM CNL002): 77.73%
YFP fluorescence quenching using ABT-126 (percent quench) (1 uM abt (ABT-126)): 59.09%
YFP fluorescence quenching using TC-5619/Bradanicline (percent quench) (1 uM brd (TC-5619/Bradanicline)): 82.26%
YFP fluorescence quenching using TC-6683 (percent quench) (3 uM TC-6683): −10%
YFP fluorescence quenching (percent quench) (10 uM ach (acetylcholine)): 4.56%
YFP fluorescence quenching (percent quench) (30 uM CNL002): 80.58%
YFP fluorescence quenching using TC-6683 (percent quench) (30 uM TC-6683): −8.51%
YFP fluorescence quenching using AZD-0328 (percent quench) (30 uM azd0328): 78.63%
YFP fluorescence quenching using TC-6683 (percent quench) (100 uM TC-6683): −9.77%
YFP fluorescence quenching (percent quench) (100 uM ach (acetylcholine)): 10.19%
YFP fluorescence quenching (percent quench) (1 mM ach (acetylcholine)): 77.34%
YFP fluorescence quenching (percent quench) (3 mM ach (acetylcholine)): 77.79%
YFP fluorescence quenching using Facinicline, 30 nM fac (ligand Facinicline 30 nM): 12.67
YFP fluorescence quenching using Facinicline, 300 nM fac (ligand Facinicline 300 nM): 80.4
YFP fluorescence quenching using Facinicline, 10 uM fac (ligand Facinicline 10 uM): 82.18
YFP fluorescence quenching using Facinicline, 30 uM fac (ligand Facinicline 30 uM): 82.14
YFP fluorescence quenching using TC-6987, 1 uM tc6987 (ligand TC-6987 1 uM): 50
YFP fluorescence quenching using TC-6987, 3 uM tc6987 (ligand TC-6987 3 uM): 80.39
YFP fluorescence quenching using TC-6987, 5 uM tc6987 (ligand TC-6987 5 uM): 79.93
YFP fluorescence quenching using TC-6987, 10 uM tc6987 (ligand TC-6987 10 uM): 80.99
YFP fluorescence quenching using TC-6987, 30 uM tc6987 (ligand TC-6987 30 uM): 83.11
YFP fluorescence quenching using TC-6987, 50 uM tc6987 (ligand TC-6987 50 uM): 83.18
YFP fluorescence quenching using TC-6987, 100 uM tc6987 (ligand TC-6987 100 uM): 82.16
YFP fluorescence quenching using TC-6987, 300 uM tc6987 (ligand TC-6987 300 uM): 64.58
YFP fluorescence quenching using TC-6987, 500 uM tc6987 (ligand TC-6987 500 uM): 76.77
YFP fluorescence quenching using Varenicline, 3 nM var (first column): −0.902
YFP fluorescence quenching using Varenicline, 3 nM var (second column): −7.62
YFP fluorescence quenching using Varenicline, 30 nM var (first column): −6.009
YFP fluorescence quenching using Varenicline, 30 nM var (second column): −3.447
YFP fluorescence quenching using Varenicline, 300 nM var (first column): 49.328
YFP fluorescence quenching using Varenicline, 300 nM var (second column): 47.685
YFP fluorescence quenching using Varenicline, 500 nM var (first column): 66.7
YFP fluorescence quenching using Varenicline, 500 nM var (second column): 64.798
YFP fluorescence quenching using Varenicline, 1 uM var (first column): 70.85
YFP fluorescence quenching using Varenicline, 1 uM var (second column): 69.038

— patent US20250152742A1, “COMPOSITIONS AND METHODS FOR NEUROLOGICAL DISEASES” (Trames Bio, Inc., priority 2022, published 2025)
